# Paper PMC5027486 (Nucleic Acids Research, 2016)
# B1: Pseudomonas aeruginosa mismatch repair protein MutS (natural protein, UniProt Q9HY08 1-855, looked up)
# chain: MTDLSQHTPMMQQYFKLKHQHPDQLMFYRMGDFYELFYEDAKKAAKLLDITLTARGQSGGKAIPMAGIPFHSAEGYLAKLVKLGESVAICEQIGDPATSKGPVERQVVRIITPGTVSDEALLDERRDNLLAAILGDERLFGLAVLDITSGRFSVQEIKGWETLLAELERLNPAELLIPDDWPQGLPAEKRRGVRRRAPWDFDRDSAHKSLCQQFGTQDLKGFGCQNLTLAIGAAGCLLAYAKETQRTALPHLRSLRHDRLDDTVILDGASRRNLELDINLSGGRENTLQSVVDRCQTAMASRLMSRWLNRPLRDRAVLEARQESIACLLERYRFENLQPQLKEIGDLERILARIGLRNARPRDLARLRDALAALPDLQNAMTELEAPHLQALATTIGTYPELAELLAKAIIDNPPAVIRDGGVIKTGYDAELDELQALSENAGQFLMDLEAREKARTGLPNLKVGYNRIHGYFIELPRVQAEQAPADYIRRQTLKGAERFITPELKAFEDKALSAQSRALAREKALYEELLERLIGHLAPLQDSASALAELDVLANLAERALNLDLNRPRFVEHTCLHIEQGRHPVVEQVLETPFVANDLALDADTRMLVITGPNMGGKSTYMRQTALIVLLAHIGSFVPAARCELSLVDRIFTRIGSSDDLAGGRSTFMVEMSETANILHNATDKSLVLMDEVGRGTSTFDGLSLAWAAAEDLARTRAFTLFATHYFELTVLPESQPAVANVHLNATEHNERIVFLHHVLPGPASQSYGLAVAQLAGVPAPVIQRAREHLKRLETTSLPHEMPSQQSGKPASPMQSDLFASLPHPVIDELSRINPDDISPRQALDLLYAWKMRV
# B2: Pseudomonas aeruginosa β clamp processivity factor (natural protein, UniProt Q9I7C4 1-367, looked up)
# chain: MHFTIQREALLKPLQLVAGVVERRQTLPVLSNVLLVVEGQQLSLTGTDLEVELVGRVVLEDAAEPGEITVPARKLMDICKSLPNDVLIDIRVEEQKLLVKAGRSRFTLSTLPANDFPTVEEGPGSLNFSIAQSKLRRLIDRTSFAMAQQDVRYYLNGMLLEVNGGTLRSVATDGHRLAMCSLDAQIPSQDRHQVIVPRKGILELARLLTEQDGEVGIVLGQHHIRATTGEFTFTSKLVDGKFPDYERVLPRGGDKLVVGDRQQLREAFSRTAILSNEKYRGIRLQLSNGLLKIQANNPEQEEAEEEVQVEYNGGNLEIGFNVSYLLDVLGVIGTEQVRFILSDSNSSALVHEADNDDSAYVVMPMRL
# Legend:
# [1] = biological target: B2; experiment: native gel or EMSA
# [2] = biological target: B2; experiment: SPR
# [3] = biological target: B2; experiment: native gel or EMSA; remark: listed apart in the source
# [4] = biological target: B1; experiment: SPR
# [5] = biological target: B1; experiment: native gel or EMSA
binder,measurement,setting,value
"Pseudomonas aeruginosa DNA polymerase IV (Pol IV) (enzyme, UniProt Q9I534 1-349, looked up) MRKIIHIDCDCFYAALEMRDDPSLRGKALAVGGSPDKRGVVATCSYEARAYGVRSAMAMRTALKLCPDLLVVRPRFDVYRAVSKQIHAIFRDYTDLIEPLSLDEAYLDVSASPHFAGSATRIAQDIRRRVAEELHITVSAGVAPNKFLAKIASDWRKPDGLFVITPEQVDGFVAELPVAKLHGVGKVTAERLARMGIRTCADLRQGSKLSLVREFGSFGERLWGLAHGIDERPVEVDSRRQSVSVECTFDRDLPDLAACLEELPTLLEELDGRLQRLDGSYRPDKPFVKLKFHDFTQTTVEQSGAGRDLESYRQLLGQAFARGNRPVRLIGVGVRLLDLQGAHEQLRLF",Kd,[1],6.22 ± 0.51 µM
same,stoichiometry N,[1],1.09 ± 0.06
same,Kd,[2],8.97 µM
same,koff,[2],0.0052 s⁻¹
same,kon,[2],580 M⁻¹ s⁻¹
MQSDLFA [MQSDLFA peptide (7-mer spanning the β clamp binding motif of MutS)],binding result,[3],binds
B1,stoichiometry N,[1],4
B2,koff,[4],0.111 s⁻¹
same,kon,[4],112000 M⁻¹ s⁻¹
same,Kd,[5],1.66 ± 0.09 µM
